Biological target: Trimeric polymerase with PB2 71-73A (PB1 WT, PB2 71-73A, strep-tagged PA)
Details: parent: est. 1.0; read off a plot

For “Trimeric influenza A virus A/WSN/1933 (H1N1) polymerase (PB1 wild type, PB2, HA-tagged PA) (from UniProt P15659) PB2 71-73A”, the ratio to parent was 0.5 n-fold of WT.

— publication PMC9922279
